Among the data in the Human Domainome abundance scans (Beltran et al. 2025) are abundance fitness values, retold here.

± gives the uncertainty stated by the source.

To fix the notation:
B1: Cytoplasmic polyadenylation element-binding protein 2, residues 513 to 575; numbered along this chain, Q7Z5Q1 (parent)
chain: KRVEVKPYVLDDQMCDECQGARCGGKFAPFFCANVTCLQYYCEFCWANIHSRAGREFHKPLVK

Variants of B1 are the subject of the series. The series can be described thus: abundance fitness (aPCA) (normalised: wild type 0, dead -1); higher = more abundant; growth selection in yeast, the domain comes from the species named. Particulars: Homo sapiens.
As to KRVEVKPYVLDDQMCDECQGARCGGKFAPFFCANVTCLQYYTEFCWANIHSRAGREFHKPLVK [C42T], the abundance fitness is -1.11 ± 0.093.

Take KRVEVKPYVLDDQMCDECQGARCGGKFAPFFCANVTCLQYYWEFCWANIHSRAGREFHKPLVK [C42W]: the abundance fitness was -1.29 ± 0.44.

For the variant KRVEVKPYVLDDQMCDECQGARCGGKFAPFFCANVTCLQYYREFCWANIHSRAGREFHKPLVK [C42R], the abundance fitness was -1 ± 0.091.

As for KRVEVKPYVLDDQMCDECQGARCGGKFAPFFCANVTCLQYYAEFCWANIHSRAGREFHKPLVK [C42A], the abundance fitness is -0.593 ± 0.11.

With KRVEVKPYVLDDQMCDECQGARCGGKFAPFFCANVTCLQYYQEFCWANIHSRAGREFHKPLVK [C42Q], the abundance fitness was -1.21 ± 0.22.

Consider KRVEVKPYVLDDQMCDECQGARCGGKFAPFFCANVTCLQYYVEFCWANIHSRAGREFHKPLVK [C42V], for which the abundance fitness was -0.849 ± 0.11.

For the variant KRVEVKPYVLDDQMCDECQGARCGGKFAPFFCANVTCLQYYEEFCWANIHSRAGREFHKPLVK [C42E], the abundance fitness is -0.951 ± 0.4.

As for KRVEVKPYVLDDQMCDECQGARCGGKFAPFFCANVTCLQIYCEFCWANIHSRAGREFHKPLVK [Y40I], the abundance fitness is -0.512 ± 0.096.

Regarding KRVEVKPYVLDDQMCDECQGARCGGKFAPFFCANVTCLQVYCEFCWANIHSRAGREFHKPLVK [Y40V], the abundance fitness is -0.399 ± 0.047.

Regarding KRVEVKPYVLDDQMCDECQGARCGGKFAPFFCANVTCLQLYCEFCWANIHSRAGREFHKPLVK [Y40L], the abundance fitness was -0.397 ± 0.049.

KRVEVKPYVLDDQMCDECQGARCGGKFAPFFCANVTCLQCYCEFCWANIHSRAGREFHKPLVK [Y40C]: the abundance fitness was -0.411 ± 0.1.

On to KRVEVKPYVLDDQMCDECQGARCGGKFAPFFCANVTCLQTYCEFCWANIHSRAGREFHKPLVK [Y40T], for which the abundance fitness is -0.315 ± 0.068.

With KRVEVKPYVLDDQMCDECQGARCGGKFAPFFCANVTCLQSYCEFCWANIHSRAGREFHKPLVK [Y40S], the abundance fitness was -0.178 ± 0.051.

Turning to KRVEVKPYVLDDQMCDECQGARCGGKFAPFFCANVTCLQNYCEFCWANIHSRAGREFHKPLVK [Y40N], the abundance fitness is 0.041 ± 0.084.

Turning to KRVEVKPYVLDDQMCDECQGARCGGKFAPFFCANVTCLQKYCEFCWANIHSRAGREFHKPLVK [Y40K], the abundance fitness was -0.186 ± 0.063.

Regarding KRVEVKPYVLDDQMCDECQGARCGGKFAPFFCANVTCLQWYCEFCWANIHSRAGREFHKPLVK [Y40W], the abundance fitness was -0.059 ± 0.056.

Take KRVEVKPYVLDDQMCDECQGARCGGKFAPFFCANVTCLQRYCEFCWANIHSRAGREFHKPLVK [Y40R]: the abundance fitness was -0.132 ± 0.048.

KRVEVKPYVLDDQMCDECQGARCGGKFAPFFCANVTCLQEYCEFCWANIHSRAGREFHKPLVK [Y40E]: the abundance fitness is -0.702 ± 0.063.

For KRVEVKPYVLDDQMCDECQGARCGGKFAPFFCANVTCLQHYCEFCWANIHSRAGREFHKPLVK [Y40H], the abundance fitness was -0.092 ± 0.066.

Regarding KRVEVKPYVLDDQMCDECQGARCGGKFAPFFCANVTCLQAYCEFCWANIHSRAGREFHKPLVK [Y40A], the abundance fitness was -0.149 ± 0.056.

KRVEVKPYVLDDQMCDECQGARCGGKFAPFFCANVTCLQQYCEFCWANIHSRAGREFHKPLVK [Y40Q]: the abundance fitness was -0.184 ± 0.09.

With KRVEVKPYVLDDQMCDECQGARCGGKFAPFFCANVTCLQPYCEFCWANIHSRAGREFHKPLVK [Y40P], the abundance fitness is -0.654 ± 0.079.

Consider KRVEVKPYVLDDQMCDECQGARCGGKFAPFFCANVTCLQGYCEFCWANIHSRAGREFHKPLVK [Y40G], for which the abundance fitness was -0.474 ± 0.045.

For KRVEVKPYVLDDQMCDECQGARCGGKFAPFFCANVTCLQFYCEFCWANIHSRAGREFHKPLVK [Y40F], the abundance fitness was -0.087 ± 0.089.

With KRVEVKPYVLDDQMCDECQGARCGGKFAPFFCANVTCLQMYCEFCWANIHSRAGREFHKPLVK [Y40M], the abundance fitness was -0.231 ± 0.055.

Take KRVEVKPYVLDDQMCDECQGARCGGKFAPFFCANVTCLIYYCEFCWANIHSRAGREFHKPLVK [Q39I]: the abundance fitness was -0.573 ± 0.1.

As to KRVEVKPYVLDDQMCDECQGARCGGKFAPFFCANVTCLNYYCEFCWANIHSRAGREFHKPLVK [Q39N], the abundance fitness is -0.103 ± 0.081.

Regarding KRVEVKPYVLDDQMCDECQGARCGGKFAPFFCANVTCLRYYCEFCWANIHSRAGREFHKPLVK [Q39R], the abundance fitness worked out at 0.129 ± 0.045.

In the case of KRVEVKPYVLDDQMCDECQGARCGGKFAPFFCANVTCLVYYCEFCWANIHSRAGREFHKPLVK [Q39V], the abundance fitness was -0.001 ± 0.044.

Consider KRVEVKPYVLDDQMCDECQGARCGGKFAPFFCANVTCLDYYCEFCWANIHSRAGREFHKPLVK [Q39D], for which the abundance fitness is -0.631 ± 0.087.

As for KRVEVKPYVLDDQMCDECQGARCGGKFAPFFCANVTCLHYYCEFCWANIHSRAGREFHKPLVK [Q39H], the abundance fitness amounted to 0.089 ± 0.083.

As to KRVEVKPYVLDDQMCDECQGARCGGKFAPFFCANVTCLFYYCEFCWANIHSRAGREFHKPLVK [Q39F], the abundance fitness was -0.472 ± 0.089.

Regarding KRVEVKPYVLDDQMCDECQGARCGGKFAPFFCANVTCLAYYCEFCWANIHSRAGREFHKPLVK [Q39A], the abundance fitness was determined as 0.1 ± 0.04.

For the variant KRVEVKPYVLDDQMCDECQGARCGGKFAPFFCANVTCLTYYCEFCWANIHSRAGREFHKPLVK [Q39T], the abundance fitness is -0.002 ± 0.053.

Consider KRVEVKPYVLDDQMCDECQGARCGGKFAPFFCANVTCLPYYCEFCWANIHSRAGREFHKPLVK [Q39P], for which the abundance fitness was -0.799 ± 0.091.

For KRVEVKPYVLDDQMCDECQGARCGGKFAPFFCANVTCLCYYCEFCWANIHSRAGREFHKPLVK [Q39C], the abundance fitness is -0.046 ± 0.064.

Regarding KRVEVKPYVLDDQMCDECQGARCGGKFAPFFCANVTCLSYYCEFCWANIHSRAGREFHKPLVK [Q39S], the abundance fitness turned out to be 0.016 ± 0.045.

Take KRVEVKPYVLDDQMCDECQGARCGGKFAPFFCANVTCLEYYCEFCWANIHSRAGREFHKPLVK [Q39E]: the abundance fitness was -0.13 ± 0.06.

In the case of KRVEVKPYVLDDQMCDECQGARCGGKFAPFFCANVTCLYYYCEFCWANIHSRAGREFHKPLVK [Q39Y], the abundance fitness is -0.369 ± 0.1.

For KRVEVKPYVLDDQMCDECQGARCGGKFAPFFCANVTCLKYYCEFCWANIHSRAGREFHKPLVK [Q39K], the abundance fitness was 0.201 ± 0.061.

In the case of KRVEVKPYVLDDQMCDECQGARCGGKFAPFFCANVTCLGYYCEFCWANIHSRAGREFHKPLVK [Q39G], the abundance fitness came out at 0.024 ± 0.051.

KRVEVKPYVLDDQMCDECQGARCGGKFAPFFCANVTCLMYYCEFCWANIHSRAGREFHKPLVK [Q39M]: the abundance fitness came out at 0.078 ± 0.074.

As for KRVEVKPYVLDDQMCDECQGARCGGKFAPFFCANVTCLLYYCEFCWANIHSRAGREFHKPLVK [Q39L], the abundance fitness is -0.175 ± 0.047.
